Assay [1] addresses T1, Membrane-bound IL-6 receptor on TF1 cells (human, UniProt P08887 20-468).
T1 sequence (looked up): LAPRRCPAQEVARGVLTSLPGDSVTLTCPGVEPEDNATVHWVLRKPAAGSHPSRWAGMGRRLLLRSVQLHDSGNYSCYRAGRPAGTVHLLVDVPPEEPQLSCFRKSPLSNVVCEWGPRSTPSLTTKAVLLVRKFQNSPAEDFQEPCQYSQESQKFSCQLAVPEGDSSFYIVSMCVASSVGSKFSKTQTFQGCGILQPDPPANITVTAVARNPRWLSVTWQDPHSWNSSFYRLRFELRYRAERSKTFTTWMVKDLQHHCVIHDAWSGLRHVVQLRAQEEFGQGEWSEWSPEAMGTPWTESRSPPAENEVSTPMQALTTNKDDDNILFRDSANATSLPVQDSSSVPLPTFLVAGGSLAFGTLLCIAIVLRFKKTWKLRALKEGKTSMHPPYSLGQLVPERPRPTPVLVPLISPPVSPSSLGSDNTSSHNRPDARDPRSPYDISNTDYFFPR
Briefly: cell-based or functional assay.

In assay [2] the target is T2, Recombinant soluble human IL-6R (human, UniProt P08887 20-365).
T2 construct: extracellular domain; also called sIL-6R; hIL-6R
T2 sequence (looked up): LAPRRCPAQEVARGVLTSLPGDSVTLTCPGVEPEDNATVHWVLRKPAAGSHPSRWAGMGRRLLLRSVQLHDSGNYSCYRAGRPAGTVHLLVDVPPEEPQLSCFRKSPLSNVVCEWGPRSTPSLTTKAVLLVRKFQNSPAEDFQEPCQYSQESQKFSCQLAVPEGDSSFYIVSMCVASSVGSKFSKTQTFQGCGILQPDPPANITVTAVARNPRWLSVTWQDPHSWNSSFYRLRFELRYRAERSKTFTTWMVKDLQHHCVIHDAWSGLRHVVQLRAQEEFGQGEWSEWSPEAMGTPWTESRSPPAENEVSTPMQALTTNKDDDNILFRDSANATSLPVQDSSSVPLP
The assay is described as follows: gp130 ELISA: inhibition of binding of sIL-6R/IL-6 complex to coated gp130.

In assay [3] the target is T2, Recombinant soluble human IL-6R. The assay is described as follows: cell-based or functional assay.
Assay [4] has the same target. Briefly: cell-based or functional assay. The source holds these as a separate data set.
The target is the same in assay [5]. Briefly: Biacore (SPR), soluble human IL-6R flowed over the plate.
Assay [6] addresses T3, Human TNF-alpha (human, UniProt P01375 77-233). The assay is described as follows: cell-based or functional assay.
Assay [7] concerns the target T3, Human TNF-alpha. The assay is described as follows: switchSENSE, TNFa immobilised, fluorescence.
Assay [8] concerns the target T3, Human TNF-alpha. Briefly: switchSENSE, ID-38F immobilised, TNF-alpha flowed, fluorescence.
The target in assay [9] is T3, Human TNF-alpha. Briefly: competition ELISA: inhibition of TNF-alpha binding to coated TNFR-2 (Enbrel).
Experimental: An ELISA plate was coated overnight with 1.5 μg/ml TNFR-2 (Enbrel) in PBS overnight at 4° C. The plate was then washed and blocked in 1% BSA for >1 h at RT before being used. […] Finally, the plate was washed again and 100 μl/well of TMB were added. Colour development was stopped by adding 50 μl/well of 0.5M H₂SO₄ and OD450 nm measurements were taken using a BMG Labtek Fluostar Omega plate reader.
In assay [10] the target is T2, Recombinant soluble human IL-6R. Briefly: Biacore (SPR), ICVD fixed to the sensor plate, soluble human IL-6R flowed; ICVD on the chip, soluble human IL-6R flowed. From the text:
The ICVD was fixed to the Biacore sensor plate and soluble human IL-6R was flowed over the plate to detect binding.

This is an account of results in patent publication US20240277864A1 (SORRISO PHARMACEUTICALS, published 2024).

T3 sequence (P01375 77-233 limits assumed): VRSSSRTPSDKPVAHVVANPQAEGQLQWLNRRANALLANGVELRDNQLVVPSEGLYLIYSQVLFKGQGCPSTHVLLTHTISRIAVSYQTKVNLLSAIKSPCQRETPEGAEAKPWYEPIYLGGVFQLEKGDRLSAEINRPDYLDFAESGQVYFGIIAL

B1: 20A11 (VHH)
VHH: EVQLVESGGGLVQPGGSLRLSCAASGSVFKINVMAWYRQAPGKGRELVAGIISGGSTSYADSVKGRFTISRDNAKNTLYLQMNSLRPEDTAVYYCAFITTESDYDLGRRYWGQGTLVTVSS
For the molecule B1, the “TF-1 cell assay EC50 nM (5 ng/ml IL-6)” value in assay [1] worked out at 0.56 nM. In assay [2], the EC50 is 0.22 nM.

B2: Tocilizumab (antibody, V domains shown)
VH: QVQLQESGPGLVRPSQTLSLTCTVSGYSITSDHAWSWVRQPPGRGLEWIGYISYSGITTYNPSLKSRVTMLRDTSKNQFSLRLSSVTAADTAVYYCARSLARTTAMDYWGQGSLVTVSS
VL: DIQMTQSPSSLSASVGDRVTITCRASQDISSYLNWYQQKPGKAPKLLIYYTSRLHSGVPSRFSGSGSGTDFTFTISSLQPEDIATYYCQQGNTLPYTFGQGTKVEIKR
Regarding B2, in [1], the “TF-1 cell assay EC50 nM (5 ng/ml IL-6)” value was 1.12 nM. The “M1 cellular assay EC50” value in assay [3] was determined as 5.36 nM. Moreover, the “EC50, nM, M1 cell assay (% inhibition of the IL-6+IL-6R response)” value in [4] worked out at 4.16 nM. Further, the Kd in [5] was determined as 0.39 nM. In assay [2], the EC50 was 1.83 nM.

B3: ID-38F (VHH)
VHH: DVQLVESGGGLVQPGGSLKLSCAASGFDFSSHWMYWVRQAPGKELEWLSEINTNGLITHYGDSVKGRFTVSRNNAANKMYLELTRLEPEDTALYYCARNQHGLNKGQGTQVTVSS
notes: also called ID38F (S. cerevisiae-produced); anti-TNF ICVD
On to B3, for which the “EC50 (nM), L929 assay (neutralisation of TNF-alpha-induced cytotoxicity)” value with Human TNF-alpha [6] was 0.127 nM. Besides, the kon with Human TNF-alpha [7] amounted to 8.1e+06 M⁻¹ s⁻¹. In the assay with Human TNF-alpha [8], this molecule showed a Kd of 0.0168 nM, a koff of 4.2e-05 s⁻¹ and a kon of 2.5e+06 M⁻¹ s⁻¹. Also, the midpoint of the response with Human TNF-alpha [9], the EC50, lay at 0.383 nM.

B4: ID-123V (VHH)
VHH: EVQLVESGGGLVQAGGSTRLTCKASGSISNINSINVMAWYRQAPGKGRELVAIIGKGGGTNYADFVKGRFTISRDAAKNTVYLQMNSLRPEDTAVYYCYADYEDHDSPHNASWGQGTQVTVSS
notes: equivalent to ID-142V except N-terminal Glu (lacks the E1D mutation) and tag; not shown: C-terminal Flag, His tag
Take B4: in [1], the “TF-1 cell assay EC50 nM (5 ng/ml IL-6)” value worked out at 4.5 nM. Besides, the “M1 cellular assay EC50” value in [3] worked out at 4.2 nM. In addition, in assay [4], the “EC50, nM, M1 cell assay (% inhibition of the IL-6+IL-6R response)” value is 2.31 nM. In addition, the EC50 in [2] is 0.498 nM. In assay [10], the Kd is 1.1 nM.

B5: ID-142V (VHH)
VHH: DVQLVESGGGLVQAGGSTRLTCKASGSISNINSINVMAWYRQAPGKGRELVAIIGKGGGTNYADFVKGRFTISRDAAKNTVYLQMNSLRPEDTAVYYCYADYEDHDSPHNASWGQGTQVTVSS
Take B5: in [4], the “EC50, nM, M1 cell assay (% inhibition of the IL-6+IL-6R response)” value came to 4.05 nM.
